We go through 5 molecules from US20260028677A1, “Compositions and Methods for Modulating Genetic Drivers” (Flagship Pioneering Innovations VII, LLC, priority 2022, published 2026).

Test [1] has as its system lung cancer (A549), liver cancer (HepG2), and colon cancer (HCT-116) cells. The test is described as follows: WST-1 cell proliferation assay, transient over-expression in multiple cell lines. The note with it: genetic overexpression in multiple cell lines (A549, HepG2, HCT-116); WST-1 48 hours after transfection; vs pcDNA3.1-Myc negative control. The class given is cell-based. How it is done:
FIGS. 2A-2C show analysis of cell viability using the WST-1 assay on lung cancer (A549), liver cancer (HepG2), and colon cancer (HCT-116). Cells were transfected with SEQ ID NO: 4538, SEQ ID NO: 5392, and SEQ ID NO: 4335 individually. pcDNA3.1-Myc tagged was used for negative control. After plasmid transfection, cell proliferation was measured 48 hours later using WST-1 assay. Data are presented as the mean±SD of three independent experiments performed in triplicate. FIG. 2A) WST-1 results in HCT-116 cells. Top: low serum, Bottom: High serum. FIG. 2B) WST-1 results in HepG2 cells. Top: low serum, Bottom: High serum. FIG. 2C) WST-1 results in A549 cells. Top: low serum, Bottom: High serum.
Experimental Design: Protein overexpression plasmids encoding Target Proteins or controls were transiently transfected into multiple cell lines. 24 hours later proliferation was measured using WST-1 assay.
(§1) Materials and Methods: Seed the cells of interest into 96-well plate at a density of 4,000 cells per well in 100 μL of cell culture medium. Incubate the cells in a humidified incubator at 37° C. with 5% CO2 for 24 hours. Dilute the Lipofectamine 3000 (Thermo Fisher) in Opti-MEM medium (Thermo Fisher) to a final concentration of 30 μL/mL. […] Measure the absorbance at 450 nm using a microplate reader. A reference wavelength of 650 nm can be used to correct for background absorbance. Calculate the percentage of viable cells in each well by subtracting the absorbance of the blank (medium only) from the absorbance of each well and expressing the results as a percentage of the control group.
A general note: Formazan colour is commonly taken as a measure of viable cells.

For test [2], the system named is colon cancer cell line HCT116 cells. Description: WST-1 cell proliferation assay, transient over-expression in HCT116. The class given is cell-based. Conditions: transient over-expression from pcDNA3.1 plasmid with Lipofectamine 3000 in HCT116; WST-1 48 hours after transfection; high serum conditions; vs control. The protocol:
WST-1 assay on HCT-116 to examine their cell viability and growth when transiently over-expressed SEQ ID NO: 5391 using Lipofectamine 3000. After plasmid transfection, cell proliferation was measured 48 hours later using WST-1 assay. Data are presented as the mean±SD of three independent experiments performed in triplicate.
Protein overexpression plasmids encoding Target Proteins or controls were transiently transfected into multiple cell lines. 24 hours later proliferation was measured using WST-1 assay.
as §1, with “Seed” for “Materials and Methods: Seed”

Entries after “also recorded” stand apart in the source; their conditions may differ.

B1: SEQ ID NO: 4538: target protein, extracellular transmembrane protein, over-expressed from plasmid (protein, listed as Homo sapiens)
chain: LARLFLRPRGPRSPIIQFRRVTGAAVASQGAGSLSPALLPLAPSPRPRRAGLRGQGPSGEGYHLTWKKMSSLEKKHSNVIVQNSLNIHNR
Take B1: the “proliferation of cells (WST-1 assay)” value in test [1] is reported as “significantly increases the proliferation”.

B2: SEQ ID NO: 5392: target protein, extracellular transmembrane protein, over-expressed from plasmid (protein, listed as Homo sapiens)
chain: MVEKSHPSSLPTLPQPLNHCPETYMLLSAAPSGASQLLSTLTLFLKKHRMDIRTISLRMLLSHTGKLAL
Take B2: the “proliferation of cells (WST-1 assay)” value in test [1] was “significantly increases the proliferation”.

B3: SEQ ID NO: 5391: novel, un-annotated target protein (predicted TM protein) carrying a TCGA mutation site, over-expressed from pcDNA3.1 plasmid (protein, listed as Homo sapiens)
chain: LLLLIIWVRVTFMSCSTHREGLQLRYSLLKPARPRTHREEETTPDAPPLRAVTLTVKVCGITPEVRETTNPPEETPDASEHLKEQTLDTPSLRTETPRQFAASFLKAVRPRTHQFWTQKDLSRLRKWQAIYEEGRDSKRWSQVL
For the molecule B3, the “proliferation of colon cancer cells (WST-1 assay)” value in test [2] was “significantly increases the proliferation; also recorded: increases the proliferation of colon cancer cells”.

B4: SEQ ID NO: 5391_P31L: mutant version of SEQ ID NO: 5391 that contains the TCGA P31L mutation (protein, listed as Homo sapiens)
chain: LLLLIIWVRVTFMSCSTHREGLQLRYSLLKLARPRTHREEETTPDAPPLRAVTLTVKVCGITPEVRETTNPPEETPDASEHLKEQTLDTPSLRTETPRQFAASFLKAVRPRTHQFWTQKDLSRLRKWQAIYEEGRDSKRWSQVL
Take B4: the “proliferation of colon cancer cells (WST-1 assay)” value in test [2] was “effect on proliferation is significantly more pronounced”.

B5: SEQ ID NO: 4335: target protein, extracellular transmembrane protein, over-expressed from plasmid (protein, listed as Homo sapiens)
chain: MNLNPRLRLQVISFHPHPKALAVTLLPALTQSLCLCMASCVYSGPKGFLFLFFPQTAQEKHMKNIT
On to B5, for which, in test [1], the “proliferation of cells (WST-1 assay)” value is on record as “significantly increases the proliferation”.
